Patent US20210101984A1 (JIANGSU HENGRUI MEDICINE, published 2021)

What was measured:
[1] = target: T1, murine B7-H3 antigen (R&D cat# 1397-B3-050/CF) (murine, UniProt Q8VE98 29-244); experiment: SPR (Biacore T200), antibody captured on Protein A chip, antigen in flow, 1:1 Langmuir fit
T1 construct: Commercial protein; also called mouse B7-H3
T1 sequence: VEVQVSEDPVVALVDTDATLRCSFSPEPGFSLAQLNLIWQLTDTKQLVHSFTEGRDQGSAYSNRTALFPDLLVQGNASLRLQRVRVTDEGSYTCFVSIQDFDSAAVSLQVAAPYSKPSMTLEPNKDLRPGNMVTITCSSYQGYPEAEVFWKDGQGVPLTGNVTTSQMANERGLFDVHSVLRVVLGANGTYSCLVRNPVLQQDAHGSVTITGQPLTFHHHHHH
Source text: A biosensor chip Protein A (Cat. # 29127556, GE) was used to affinity capture a certain amount of antibody to be tested. A series diluted of human 2Ig-B7-H3 antigen (Cat. #1949-B3-050/CF, R&D), human 4Ig-B7-H3 antigen (Cat. #11188-H08H, Sino Biological) or murine B7-H3 antigen (Cat. # 1397-B3-050/CF, R&D) was flowed through the surface of the chip. Real-time reaction signal was detected by using Biacore instrument (Biacore T200, GE), in order to obtain association and dissociation curves. After completion of each cycle of dissociation, the biochip was washed and regenerated with glycine-hydrochloric acid regeneration solution (pH 1.5) (Cat.#BR-1003-54, GE). The buffer used in the experiment was HBS-EP buffer solution (pH 7.4) (Cat. # BR-1001-88, GE).
The experimental data was fitted with BIA evaluation version 4.1 GE software in a (1:1) Langmuir model to obtain affinity values.

[2] = target: B7-H3 on U87MG tumor cells (human) (UniProt Q5ZPR3); experiment: flow cytometry on U87MG cells, APC anti-human IgG Fc detection, geometric mean fluorescence
B7-H3 on U87MG tumor cells (human), sequence (Q5ZPR3 29-534): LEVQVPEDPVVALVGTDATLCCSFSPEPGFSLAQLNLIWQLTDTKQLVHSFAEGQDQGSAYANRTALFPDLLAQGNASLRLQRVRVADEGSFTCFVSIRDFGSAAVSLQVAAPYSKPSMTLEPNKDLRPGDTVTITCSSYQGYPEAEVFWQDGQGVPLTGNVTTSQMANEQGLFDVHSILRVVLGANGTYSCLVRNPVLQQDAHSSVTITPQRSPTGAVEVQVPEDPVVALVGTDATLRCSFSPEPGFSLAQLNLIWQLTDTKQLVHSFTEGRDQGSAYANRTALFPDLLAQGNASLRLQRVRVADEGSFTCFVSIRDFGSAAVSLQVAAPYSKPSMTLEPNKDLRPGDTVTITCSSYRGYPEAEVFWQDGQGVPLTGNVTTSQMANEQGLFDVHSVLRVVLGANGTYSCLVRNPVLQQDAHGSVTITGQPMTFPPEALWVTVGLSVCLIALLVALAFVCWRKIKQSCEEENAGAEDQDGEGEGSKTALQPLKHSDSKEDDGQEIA

B1: h1702-IgG1 (antibody, V domains shown)
VH: QVQLVQSGGGVVQPGTSLRLSCAASGFIFSSSAMHWVRQAPGKGLEWVAVISYDGSNKYYVDSVKGRFTISRDNSKNTLYLQMNSLRAEDTAVYYCARSARLYASFDYWGQGALVTVSS
VL: QTVVTQEPSFSVSPGGTVTLTCGLSSGSVSTSHYPSWYQQTPGQAPRMLIYNTNTRSSGVPDRFSGSILGNKAALTITGAQADDESDYYCAIHVDRDIWVFGGGTKLTVLG
notes: Fully human IgG1 with lambda light chain, from an scFv phage library, expressed in HEK293E cells
- Kd [1]: 1470 nM
- EC50 (read off the curve) [2]: 2 nM

B2: h1703-IgG1 (antibody, V domains shown)
VH: QVQLQESGGGLVQPGGSLRLSCAASGFTFSSYAMSWVRQAPGKGLEWVSAISGSGGSTYYADSVKGRYTISRDNSKNTLYLQMNSLRAEDTAVYYCAKGVGPVHALDVWGQGTTVTVSS
VL: DIRLTQSPSSLSASVGDRVTITCRASQSISTYLNWYQQKPGKAPILLINAVSGLQSGVPSRFSGSGSGTHFTLTITSLQPEDFATYYCQQSYSTPMWTFGQGTKVEIKR
notes: Fully human IgG1 with kappa light chain, from an scFv phage library, expressed in HEK293E cells
- Kd [1]: 502 nM
